Measured values taken from US20180237534A1 (Bristol-Myers Squibb, published 2018).

How the values were obtained:
[1] = biological target: T1, human OX40, membrane-bound (human, UniProt P43489 29-277); test: FACS on activated primary human CD4+/CD25+ T cells, purified recombinant antibody, APC GMFI
T1 sequence: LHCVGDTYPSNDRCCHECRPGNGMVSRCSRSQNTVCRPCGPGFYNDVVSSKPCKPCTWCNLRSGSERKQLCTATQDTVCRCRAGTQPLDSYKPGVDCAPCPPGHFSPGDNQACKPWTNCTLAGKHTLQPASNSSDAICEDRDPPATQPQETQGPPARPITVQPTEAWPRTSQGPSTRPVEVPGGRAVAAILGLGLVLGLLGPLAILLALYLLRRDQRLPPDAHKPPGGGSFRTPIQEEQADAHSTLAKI
Protocol: Cells were activated for several days before the binding assay in order to induce OX40 expression. Briefly, PBMCs were cultured for three or four days with magnetic beads coated with anti-human CD3 plus anti-human CD28, in the presence of recombinant human IL-2. On the day of the assay, the beads were removed and the cells stained with a titration of each anti-OX40 antibody. Bound antibodies were detected with a fluorescently conjugated anti-human IgG polyclonal secondary antibody, and the cells were co-stained for CD4 and CD25 to detect activated CD4 T cells. The fluorescence intensity of the staining was measured using a FACSCanto II flow cytometer (Becton Dickinson). The geometric mean fluorescence intensity (GMFI) or median fluorescence intensity (MedFI) of anti-OX40 antibody staining was calculated for the CD4+CD25+ population (FACSDiva software). EC₅₀s for antibody binding were calculated using GraphPad Prism software.

[2] = biological target: T2, cynomolgus OX40, membrane-bound (cynomolgus monkey, UniProt P43489 29-277 (human entry)); test: FACS on activated primary cynomolgus CD4+/CD25+ T cells, purified recombinant antibody, APC GMFI
T2 construct: also called cynoOX40-CHO
T2 chain: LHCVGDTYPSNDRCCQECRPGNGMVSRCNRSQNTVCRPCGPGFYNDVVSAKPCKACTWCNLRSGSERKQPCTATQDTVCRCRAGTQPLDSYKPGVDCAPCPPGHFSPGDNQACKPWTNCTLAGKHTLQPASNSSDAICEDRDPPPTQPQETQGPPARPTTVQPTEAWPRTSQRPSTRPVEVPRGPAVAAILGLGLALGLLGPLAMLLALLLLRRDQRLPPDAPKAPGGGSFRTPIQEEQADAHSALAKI
Protocol: Briefly, cells were activated for several days before the binding assay in order to induce OX40 expression. Total leukocytes were isolated from cynomolgus macaque peripheral blood by lysis of red blood cells using an ammonium chloride buffer. The leukocytes were then cultured for four to five days with in flasks pre-coated with anti-human CD3 plus anti-human CD28 antibodies that cross-react with cynomolgus macaque, in the presence of recombinant human IL-2, in order to expand and activate T cells. On the day of the assay, the cells were harvested and stained with a titration of each anti-OX40 antibody. Bound antibodies were detected with a fluorescently conjugated anti-human IgG polyclonal secondary antibody, and the cells were co-stained for CD4 and CD25 to detect activated CD4 T cells. The fluorescence intensity of the staining was measured using a FACSCanto II flow cytometer (Becton Dickinson). The geometric mean fluorescence intensity (GMFI) or median fluorescence intensity (MedFI) of anti-OX40 antibody staining was calculated for the CD4+CD25+ population (FACSDiva software). Dose-response curves were generated and EC50s for antibody binding were calculated using GraphPad Prism software.
The same experiment was performed with anti-OX40 antibodies with variable region substitutions.

B1: OX40.6 (antibody, human IgG1, kappa, V domains shown)
VH: EVQLVQSGGGLVQPGGSLRLSCAGSGFTFSNYAMYWVRQAPGKGLEWVSAIGIGGDTFYTDSVKGRFTISRDNAKNSLSLQMNSLRAEDTAVYYCARMGTGYFFDYWGQGTLVTVSS
VL: EIVLTQSPATLSLSPGERATLSCRASQSVSSYLAWYQQKPGQAPRLLIYDASNRATGIPARFSGSGSGTDFTLTISSLEPEDFAVYYCQQRSNWPLTFGPGTKVDIKR
notes: g1f; 23H3 with VH-H13Q/M87T
- EC50 (read off the curve) [1]: ~0.1 nM
- EC50 (read off the curve) [2]: ~0.1 nM
